Experimental findings from paper PMC9993842 (2023) are described below.

Usually Kd stands for a measure of binding affinity in units of concentration. A high value points to a looser complex.

This assay has as its target LRP2 (megalin) (Mus musculus, UniProt A2ARV4). Briefly: SPR. A general note: Surface plasmon resonance follows binding to a sensor surface in real time, without labels.

B1: RAP (receptor-associated protein) (protein)
chain: YSREKNQPKPSPKRESGEEFRMEKLNQLWEKAQRLHLPPVRLAELHADLKIQERDELAWKKLKLDGLDEDGEKEARLIRNLNVILAKYGLDGKKDARQVTSNSLSGTQEDGLDDPRLEKLWHKAKTSGKFSGEELDKLWREFLHHKEKVHEYNVLLETLSRTEEIHENVISPSDLSDIKGSVLHSRHTELKEKLRSINQGLDRLRRVSHQGYSTEAEFEEPRVIDLWDLAQSANLTDKELEAFREELKHFEAKIEKHNHYQKQLEIAHEKLRHAESVGDGERVSRSREKHALLEGRTKELGYTVKKHLQDLSGRISRARHNEL
In turn, B1 gave a Kd of 5.8 nM.
